Measurements from patent US8541373B2, “BChE albumin fusions for the treatment of cocaine abuse” (priority 2009, dated 2013).

System: cocaine
Experiment: Plasma cocaine, benzoylecgonine and ecgonine methyl ester (LC-MS) and cocaine PK after IV cocaine post-AlbuBChE
Format: in vivo, cynomolgus monkeys
Settings: 0.2 mg/kg IM
Experimental: Blood was placed into K2EDTA blood collection tubes with esterase inhibitor diisopropylfluorophosphate (DFP). Tubes were inverted several times and placed on wet ice upon collection. Samples were centrifuged at 2-8° C. within 45 minutes of collection. The resultant plasma was recovered and a single 200 μL aliquot of plasma was placed into polypropylene tubes. Plasma samples were frozen over dry ice and stored at −75±15° C.
The following outline describes the LC-MS-based assay employed for the measurement of cocaine in plasma samples. Prior to MS analysis, plasma samples, calibration standards and controls were extracted using supported liquid extraction (SLE-ISOLUTE, Biotage). Twenty-five microliters of samples (25 μL) received 150 μl of 5% Ammonium hydroxide and 25 μl internal standard solution (Cocaine-d3). After mixing and transfer to SLE plate, samples were eluted with methylene chloride and evaporated to dryness. After resuspension in 50 μl of reconstitution solution—5% ACM in 10 mM ammonium acetate in water, 10 μl was injected onto Thermo Hypercarb column at 0.5 ml/min. Mobile phase was biphasic. Mass spectrophotometric detection was performed using Api 4000, APCI positive interface and Multiple Reaction Monitoring (MRM). Plasma concentrations of cocaine, benzoylecgonine and ecgonine methyl ester were determined using this assay.
When the data permits, pharmacokinetic parameter values for cocaine and its metabolites were determined using plasma concentration-times profiles for individual animals at all the study days of cocaine administration. […] Specifically the model for non-compartmental analysis with IV bolus input for cocaine and extravascular input for the metabolites.

[1] = cocaine 1 mg/kg IV 2 hr post-AlbuBChE
[2] = cocaine 1 mg/kg IV 2 hr post-AlbuBChE, 5 min after cocaine
[3] = cocaine 1 mg/kg IV 2 hr post-AlbuBChE, 10 min after cocaine
[4] = cocaine 1 mg/kg IV 2 hr post-AlbuBChE, 15 min after cocaine
[5] = cocaine 1 mg/kg IV 2 hr post-AlbuBChE, 20 min after cocaine
[6] = cocaine 1 mg/kg IV 2 hr post-AlbuBChE, 30 min after cocaine
[7] = cocaine 1 mg/kg IV 2 hr post-AlbuBChE, 40 min after cocaine
[8] = cocaine 1 mg/kg IV 2 hr post-AlbuBChE, 60 min after cocaine
[9] = cocaine 1 mg/kg IV 48 hr post-AlbuBChE
[10] = cocaine 1 mg/kg IV 48 hr post-AlbuBChE, 5 min after cocaine
[11] = cocaine 1 mg/kg IV 48 hr post-AlbuBChE, 10 min after cocaine
[12] = cocaine 1 mg/kg IV 48 hr post-AlbuBChE, 15 min after cocaine
[13] = cocaine 1 mg/kg IV 48 hr post-AlbuBChE, 20 min after cocaine
[14] = cocaine 1 mg/kg IV 48 hr post-AlbuBChE, 30 min after cocaine
[15] = cocaine 1 mg/kg IV 48 hr post-AlbuBChE, 40 min after cocaine
[16] = cocaine 1 mg/kg IV 48 hr post-AlbuBChE, 60 min after cocaine
[17] = cocaine 1 mg/kg IV 96 hr post-AlbuBChE
[18] = cocaine 1 mg/kg IV 96 hr post-AlbuBChE, 5 min after cocaine
[19] = cocaine 1 mg/kg IV 96 hr post-AlbuBChE, 10 min after cocaine
[20] = cocaine 1 mg/kg IV 96 hr post-AlbuBChE, 15 min after cocaine
[21] = cocaine 1 mg/kg IV 96 hr post-AlbuBChE, 20 min after cocaine
[22] = cocaine 1 mg/kg IV 96 hr post-AlbuBChE, 30 min after cocaine
[23] = cocaine 1 mg/kg IV 96 hr post-AlbuBChE, 40 min after cocaine
[24] = cocaine 1 mg/kg IV 96 hr post-AlbuBChE, 60 min after cocaine
[25] = cocaine 1 mg/kg IV 120 hr post-AlbuBChE
[26] = cocaine 1 mg/kg IV 120 hr post-AlbuBChE, 5 min after cocaine
[27] = cocaine 1 mg/kg IV 120 hr post-AlbuBChE, 10 min after cocaine
[28] = cocaine 1 mg/kg IV 120 hr post-AlbuBChE, 15 min after cocaine
[29] = cocaine 1 mg/kg IV 120 hr post-AlbuBChE, 20 min after cocaine
[30] = cocaine 1 mg/kg IV 120 hr post-AlbuBChE, 30 min after cocaine

AlbuBChE
Mean benzoylecgonine AUC(0-t) [1]: 3136 ng·min/mL
Mean cocaine AUC(0-t) [1]: 11878 ng·min/mL
Mean cocaine C0 [1]: 628 ng/mL
Ecgonine methyl ester plasma concentration (mean) [2]: 51.6 ng/mL
Mean benzoylecgonine plasma concentration [2]: 50.6 ng/mL
Mean cocaine plasma concentration [2]: 481 ng/mL
Ecgonine methyl ester plasma concentration (mean) [3]: 81.9 ng/mL
Mean benzoylecgonine plasma concentration [3]: 49.7 ng/mL
Mean cocaine plasma concentration [3]: 370 ng/mL
Ecgonine methyl ester plasma concentration (mean) [4]: 83.2 ng/mL
Mean benzoylecgonine plasma concentration [4]: 50.4 ng/mL
Mean cocaine plasma concentration [4]: 273 ng/mL
Ecgonine methyl ester plasma concentration (mean) [5]: 154 ng/mL
Mean benzoylecgonine plasma concentration [5]: 65.1 ng/mL
Mean cocaine plasma concentration [5]: 227 ng/mL
Ecgonine methyl ester plasma concentration (mean) [6]: 261 ng/mL
Mean benzoylecgonine plasma concentration [6]: 28.6 ng/mL
Mean cocaine plasma concentration [6]: 67.0 ng/mL
Ecgonine methyl ester plasma concentration (mean) [7]: 120 ng/mL
Mean benzoylecgonine plasma concentration [7]: 58.0 ng/mL
Mean cocaine plasma concentration [7]: 115 ng/mL
Ecgonine methyl ester plasma concentration (mean) [8]: 120 ng/mL
Mean benzoylecgonine plasma concentration [8]: 60.5 ng/mL
Mean cocaine plasma concentration [8]: 58.6 ng/mL
Mean benzoylecgonine AUC(0-t) [9]: 1989 ng·min/mL
Mean cocaine AUC % Extrap [9]: 15.1%
Mean cocaine AUC(0-t) [9]: 7713 ng·min/mL
Mean cocaine AUC(0-∞) [9]: 9094 ng·min/mL
Mean cocaine C0 [9]: 274 ng/mL
Mean cocaine CI [9]: 110 mL/min/kg
Mean cocaine Vss [9]: 3.503 L/kg
Mean cocaine t½ [9]: 21.2 min
Ecgonine methyl ester plasma concentration (mean) [10]: 21.1 ng/mL
Mean benzoylecgonine plasma concentration [10]: 27.3 ng/mL
Mean cocaine plasma concentration [10]: 235 ng/mL
Ecgonine methyl ester plasma concentration (mean) [11]: 19.5 ng/mL
Mean benzoylecgonine plasma concentration [11]: 29.4 ng/mL
Mean cocaine plasma concentration [11]: 203 ng/mL
Ecgonine methyl ester plasma concentration (mean) [12]: 23.9 ng/mL
Mean benzoylecgonine plasma concentration [12]: 29.0 ng/mL
Mean cocaine plasma concentration [12]: 187 ng/mL
Ecgonine methyl ester plasma concentration (mean) [13]: 25.8 ng/mL
Mean benzoylecgonine plasma concentration [13]: 28.2 ng/mL
Mean cocaine plasma concentration [13]: 146 ng/mL
Ecgonine methyl ester plasma concentration (mean) [14]: 33.9 ng/mL
Mean benzoylecgonine plasma concentration [14]: 37.1 ng/mL
Mean cocaine plasma concentration [14]: 121 ng/mL
Ecgonine methyl ester plasma concentration (mean) [15]: 50.7 ng/mL
Mean benzoylecgonine plasma concentration [15]: 36.9 ng/mL
Mean cocaine plasma concentration [15]: 77.8 ng/mL
Ecgonine methyl ester plasma concentration (mean) [16]: 37.0 ng/mL
Mean benzoylecgonine plasma concentration [16]: 35.6 ng/mL
Mean cocaine plasma concentration [16]: 43.2 ng/mL
Mean benzoylecgonine AUC(0-t) [17]: 3270 ng·min/mL
Mean cocaine AUC % Extrap [17]: 14.9%
Mean cocaine AUC(0-t) [17]: 11145 ng·min/mL
Mean cocaine AUC(0-∞) [17]: 13008 ng·min/mL
Mean cocaine C0 [17]: 451 ng/mL
Mean cocaine CI [17]: 78.1 mL/min/kg
Mean cocaine Vss [17]: 2.506 L/kg
Mean cocaine t½ [17]: 21.1 min
Ecgonine methyl ester plasma concentration (mean) [18]: 26.4 ng/mL
Mean benzoylecgonine plasma concentration [18]: 49.7 ng/mL
Mean cocaine plasma concentration [18]: 360 ng/mL
Ecgonine methyl ester plasma concentration (mean) [19]: 39.4 ng/mL
Mean benzoylecgonine plasma concentration [19]: 47.7 ng/mL
Mean cocaine plasma concentration [19]: 301 ng/mL
Ecgonine methyl ester plasma concentration (mean) [20]: 24.5 ng/mL
Mean benzoylecgonine plasma concentration [20]: 52.6 ng/mL
Mean cocaine plasma concentration [20]: 255 ng/mL
Ecgonine methyl ester plasma concentration (mean) [21]: 29.8 ng/mL
Mean benzoylecgonine plasma concentration [21]: 55.1 ng/mL
Mean cocaine plasma concentration [21]: 189 ng/mL
Ecgonine methyl ester plasma concentration (mean) [22]: 49.8 ng/mL
Mean benzoylecgonine plasma concentration [22]: 56.5 ng/mL
Mean cocaine plasma concentration [22]: 165 ng/mL
Ecgonine methyl ester plasma concentration (mean) [23]: 50.2 ng/mL
Mean benzoylecgonine plasma concentration [23]: 55.2 ng/mL
Mean cocaine plasma concentration [23]: 118 ng/mL
Ecgonine methyl ester plasma concentration (mean) [24]: 43.4 ng/mL
Mean benzoylecgonine plasma concentration [24]: 57.8 ng/mL
Mean cocaine plasma concentration [24]: 60.5 ng/mL
Mean benzoylecgonine AUC(0-t) [25]: 3583 ng·min/mL
Mean cocaine AUC % Extrap [25]: 16.1%
Mean cocaine AUC(0-t) [25]: 11611 ng·min/mL
Mean cocaine AUC(0-∞) [25]: 14059 ng·min/mL
Mean cocaine C0 [25]: 391 ng/mL
Mean cocaine CI [25]: 72.5 mL/min/kg
Mean cocaine Vss [25]: 2.338 L/kg
Mean cocaine t½ [25]: 23.0 min
Ecgonine methyl ester plasma concentration (mean) [26]: 18.9 ng/mL
Mean benzoylecgonine plasma concentration [26]: 55.1 ng/mL
Mean cocaine plasma concentration [26]: 349 ng/mL
Ecgonine methyl ester plasma concentration (mean) [27]: 28.9 ng/mL
Mean benzoylecgonine plasma concentration [27]: 46.9 ng/mL
Mean cocaine plasma concentration [27]: 312 ng/mL
Ecgonine methyl ester plasma concentration (mean) [28]: 27.6 ng/mL
Mean benzoylecgonine plasma concentration [28]: 53.1 ng/mL
Mean cocaine plasma concentration [28]: 267 ng/mL
Ecgonine methyl ester plasma concentration (mean) [29]: 34.5 ng/mL
Mean benzoylecgonine plasma concentration [29]: 55.9 ng/mL
Mean cocaine plasma concentration [29]: 218 ng/mL
Ecgonine methyl ester plasma concentration (mean) [30]: 136 ng/mL
Mean benzoylecgonine plasma concentration [30]: 64.2 ng/mL
Mean cocaine plasma concentration [30]: 160 ng/mL
